In PMC9482650, “Quantitative fragmentomics allow affinity mapping of interactomes” (Nature Communications, 2022):

Experiments:
Assay in all cases: holdup assay
Parameters in all cases: key: below the threshold = too weak to quantify, mostly under pKd 3.1 to 4
[1] = molecular target: NHERF4_2, Q86UT5
[2] = molecular target: NOS1, P29475
[3] = molecular target: MAGI2_6, Q86UL8
[4] = molecular target: AHNAK1, Q09666
[5] = molecular target: T1, LRRC7, Q96NW7
T1 sequence (Q96NW7 1440-1537, limits assumed, looked up): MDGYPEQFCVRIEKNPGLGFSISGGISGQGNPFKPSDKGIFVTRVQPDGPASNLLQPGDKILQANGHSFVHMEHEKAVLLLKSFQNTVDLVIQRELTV

[6] = molecular target: Inadl_1, Q8NI35
Sequence of Inadl_1, Q8NI35 (Q8NI35 113-229): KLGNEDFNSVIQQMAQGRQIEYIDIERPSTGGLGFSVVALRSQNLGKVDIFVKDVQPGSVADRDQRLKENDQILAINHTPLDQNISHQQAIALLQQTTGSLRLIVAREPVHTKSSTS

[7] = molecular target: SCRIB_2, Q14160
Sequence of SCRIB_2, Q14160 (Q14160 857-960): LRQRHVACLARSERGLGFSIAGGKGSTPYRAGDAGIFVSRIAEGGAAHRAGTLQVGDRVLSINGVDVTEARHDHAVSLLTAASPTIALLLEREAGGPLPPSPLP

[8] = molecular target: T2, TIAM2, Q8IVF5
T2 sequence (Q8IVF5 885-986, limits assumed, looked up): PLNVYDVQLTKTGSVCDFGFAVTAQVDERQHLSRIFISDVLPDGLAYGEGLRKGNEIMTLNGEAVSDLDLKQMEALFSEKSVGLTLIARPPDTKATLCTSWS

[9] = molecular target: DLG2_2, Q15700
Sequence of DLG2_2, Q15700 (Q15700 189-283): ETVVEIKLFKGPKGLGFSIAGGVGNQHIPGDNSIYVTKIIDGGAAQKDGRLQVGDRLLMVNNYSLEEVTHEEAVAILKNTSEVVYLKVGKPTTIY

[10] = molecular target: PDLIM1, O00151
Sequence of PDLIM1, O00151 (O00151 1-87): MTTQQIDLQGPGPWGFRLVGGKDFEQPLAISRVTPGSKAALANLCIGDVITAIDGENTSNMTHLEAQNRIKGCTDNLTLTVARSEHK

[11] = molecular target: T3, LNX2_2, Q8N448
T3 sequence (Q8N448 334-432, limits assumed, looked up): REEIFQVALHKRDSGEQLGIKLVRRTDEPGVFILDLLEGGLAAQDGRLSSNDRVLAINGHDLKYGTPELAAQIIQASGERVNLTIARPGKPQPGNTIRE

[12] = molecular target: TJP1_2, Q07157
Sequence of TJP1_2, Q07157 (Q07157 181-274): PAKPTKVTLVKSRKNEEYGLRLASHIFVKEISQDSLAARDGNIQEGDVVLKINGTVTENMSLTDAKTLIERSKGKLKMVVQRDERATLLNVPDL

[13] = molecular target: T4, PARD3B_1, Q8TEW8
T4 sequence (Q8TEW8 196-299, limits assumed, looked up): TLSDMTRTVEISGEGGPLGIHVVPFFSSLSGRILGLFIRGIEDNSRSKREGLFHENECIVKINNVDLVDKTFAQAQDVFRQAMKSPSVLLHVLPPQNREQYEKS

[14] = molecular target: T5, SIPA1L2, Q9P2F8
T5 sequence (Q9P2F8 945-1036, limits assumed, looked up): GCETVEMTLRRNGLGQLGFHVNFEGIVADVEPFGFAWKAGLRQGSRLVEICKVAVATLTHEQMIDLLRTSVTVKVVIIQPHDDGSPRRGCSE

[15] = molecular target: LAP2, Q96RT1
Sequence of LAP2, Q96RT1 (Q96RT1 other isoform, or with tags, fused parts or gaps): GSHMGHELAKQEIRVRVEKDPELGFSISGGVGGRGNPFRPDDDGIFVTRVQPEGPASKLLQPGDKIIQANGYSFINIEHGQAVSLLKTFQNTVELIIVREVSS

[16] = molecular target: T6, DLG3_1, Q92796
T6 sequence (Q92796 125-227, limits assumed, looked up): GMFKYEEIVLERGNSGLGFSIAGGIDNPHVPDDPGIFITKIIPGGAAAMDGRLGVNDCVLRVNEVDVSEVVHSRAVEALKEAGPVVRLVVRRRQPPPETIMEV

[17] = molecular target: T7, DFNB31_3, Q9P202
T7 sequence (Q9P202 811-907, limits assumed, looked up): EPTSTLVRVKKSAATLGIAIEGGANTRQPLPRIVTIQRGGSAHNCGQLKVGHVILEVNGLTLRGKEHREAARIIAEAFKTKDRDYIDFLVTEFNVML

[18] = molecular target: DLG4_2, P78352
Sequence of DLG4_2, P78352 (P78352 155-259): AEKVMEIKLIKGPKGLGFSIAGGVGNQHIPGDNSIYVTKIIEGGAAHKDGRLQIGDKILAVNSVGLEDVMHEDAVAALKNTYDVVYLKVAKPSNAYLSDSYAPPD

[19] = molecular target: DLG1_1, Q12959
[20] = molecular target: SCRIB_3, Q14160
Sequence of SCRIB_3, Q14160 (Q14160 999-1103): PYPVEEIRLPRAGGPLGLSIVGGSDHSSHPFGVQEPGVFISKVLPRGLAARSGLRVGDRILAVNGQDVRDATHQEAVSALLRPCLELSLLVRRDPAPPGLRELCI

[21] = molecular target: T8, GRIP1_7, Q9Y3R0
T8 sequence (Q9Y3R0 999-1096, limits assumed, looked up): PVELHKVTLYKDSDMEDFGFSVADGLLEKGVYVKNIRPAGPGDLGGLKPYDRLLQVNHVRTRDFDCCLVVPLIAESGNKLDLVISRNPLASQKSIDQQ

[22] = molecular target: T9, PCLO, Q9Y6V0
T9 sequence (Q9Y6V0 4491-4600, limits assumed, looked up): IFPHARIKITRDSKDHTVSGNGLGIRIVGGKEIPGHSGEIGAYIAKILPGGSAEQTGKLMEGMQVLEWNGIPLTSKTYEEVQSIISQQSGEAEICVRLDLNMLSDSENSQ

[23] = molecular target: GRID2IP_1, A4D2P6
Sequence of GRID2IP_1, A4D2P6 (A4D2P6 1-87): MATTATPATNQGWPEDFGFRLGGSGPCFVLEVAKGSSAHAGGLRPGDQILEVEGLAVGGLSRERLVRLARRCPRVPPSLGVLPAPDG

[24] = molecular target: MAGI2_3, Q86UL8
Sequence of MAGI2_3, Q86UL8 (Q86UL8 600-682): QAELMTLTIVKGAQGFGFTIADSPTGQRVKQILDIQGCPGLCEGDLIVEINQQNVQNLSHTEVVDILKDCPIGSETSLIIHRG

[25] = molecular target: T10, GRIP1_4, Q9Y3R0
T10 sequence (Q9Y3R0 467-571, limits assumed, looked up): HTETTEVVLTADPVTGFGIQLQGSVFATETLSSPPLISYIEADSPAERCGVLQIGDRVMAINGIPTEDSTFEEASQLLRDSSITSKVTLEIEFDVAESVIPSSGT

[26] = molecular target: HTRA1, Q92743
Sequence of HTRA1, Q92743 (Q92743 360-477): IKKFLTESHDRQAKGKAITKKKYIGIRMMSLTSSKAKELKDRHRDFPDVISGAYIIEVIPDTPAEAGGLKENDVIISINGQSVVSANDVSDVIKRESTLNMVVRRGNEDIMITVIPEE

[27] = molecular target: T11, MPDZ_10, O75970
T11 sequence (O75970 1624-1722, limits assumed, looked up): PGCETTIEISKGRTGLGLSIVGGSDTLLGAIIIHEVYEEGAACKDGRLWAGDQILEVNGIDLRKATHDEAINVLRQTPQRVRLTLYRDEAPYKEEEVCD

[28] = plain residues with an end cap or a label only (N-terminal biotin on a linker: ado-ado)
[29] = plain residues with an end cap or a label only (N-terminal biotin on a linker: (peg)3)

Sequence of MAGI2_6, Q86UL8 (Q86UL8 1141-1229): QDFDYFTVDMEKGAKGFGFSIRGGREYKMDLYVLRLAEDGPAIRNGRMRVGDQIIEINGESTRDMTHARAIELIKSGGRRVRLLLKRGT
Sequence of AHNAK1, Q09666 (Q09666 4-100): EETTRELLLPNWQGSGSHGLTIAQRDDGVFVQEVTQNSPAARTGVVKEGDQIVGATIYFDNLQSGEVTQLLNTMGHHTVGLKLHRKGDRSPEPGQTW
Sequence of NHERF4_2, Q86UT5 (Q86UT5 220-308): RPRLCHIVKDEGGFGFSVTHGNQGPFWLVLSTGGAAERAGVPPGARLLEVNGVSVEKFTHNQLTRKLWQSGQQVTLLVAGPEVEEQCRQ
Sequence of NOS1, P29475 (P29475 9-101): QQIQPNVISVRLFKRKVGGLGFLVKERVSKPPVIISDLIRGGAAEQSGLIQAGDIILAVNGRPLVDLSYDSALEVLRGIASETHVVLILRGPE

LTAQEQPVYI [APBA1, Q02410] was tested, and the pKd [1, 28] was “below the threshold”, the pKd [2, 28] was 4.07 and the pKd [3, 28] was “below the threshold”. The pKd [4, 28] was “below the threshold”, the pKd [5, 28] was “below the threshold” and the pKd [6, 28] was “below the threshold”. For the same binder, the pKd [7, 28] was “below the threshold”, the pKd [8, 28] was 4.01 and the pKd [9, 28] was “below the threshold”. For the same binder, the pKd [10, 28] was “below the threshold”, the pKd [11, 28] was 4.9 and the pKd [12, 28] was 3.55. For the same binder, the pKd [13, 28] was 5, the pKd [14, 28] was “below the threshold” and the pKd [15, 28] was “below the threshold”. For the same binder, the pKd [16, 28] was “below the threshold”, the pKd [17, 28] was 3.5 and the pKd [18, 28] was “below the threshold”. The pKd [19, 28] was “below the threshold”, the pKd [20, 28] was “below the threshold” and the pKd [21, 28] was “below the threshold”. For the same binder, the pKd [22, 28] was “below the threshold”, the pKd [23, 28] was “below the threshold” and the pKd [24, 28] was “below the threshold”. The pKd [25, 28] was “below the threshold”, the pKd [26, 28] was 5.07 and the pKd [27, 28] was “below the threshold”.

In the case of RTQSSDSAYV [GJD2, Q9UKL4], the pKd [1, 28] is reported as “below the threshold”, the pKd [2, 28] is reported as 3.95 and the pKd [3, 28] is reported as 3.58. The pKd [4, 28] was “below the threshold”, the pKd [5, 28] was “below the threshold” and the pKd [6, 28] was “below the threshold”. For the same binder, the pKd [7, 28] was “below the threshold”, the pKd [8, 28] was “below the threshold” and the pKd [9, 28] was “below the threshold”. For the same binder, the pKd [10, 28] was “below the threshold”, the pKd [11, 28] was 4.65 and the pKd [12, 28] was “below the threshold”. The pKd [13, 28] was 4.63, the pKd [14, 28] was “below the threshold” and the pKd [15, 28] was “below the threshold”. For the same binder, the pKd [16, 28] was “below the threshold”, the pKd [17, 28] was “below the threshold” and the pKd [18, 28] was 3.65. For the same binder, the pKd [19, 28] was “below the threshold”, the pKd [20, 28] was “below the threshold” and the pKd [21, 28] was “below the threshold”. For the same binder, the pKd [22, 28] was “below the threshold”, the pKd [23, 28] was “below the threshold” and the pKd [24, 28] was “below the threshold”. The pKd [25, 28] was “below the threshold”, the pKd [26, 28] was 4.6 and the pKd [27, 28] was “below the threshold”.

In the case of RPGFASESKV [ADRB1, P08588], the pKd [1, 28] is reported as “below the threshold”, the pKd [2, 28] is reported as 3.6 and the pKd [3, 28] is reported as “below the threshold”. The pKd [4, 28] was “below the threshold”, the pKd [5, 28] was 3.59 and the pKd [6, 28] was “below the threshold”. For the same binder, the pKd [7, 28] was 4.04, the pKd [8, 28] was “below the threshold” and the pKd [9, 28] was 3.87. For the same binder, the pKd [10, 28] was “below the threshold”, the pKd [11, 28] was “below the threshold” and the pKd [12, 28] was “below the threshold”. The pKd [13, 28] was “below the threshold”, the pKd [14, 28] was “below the threshold” and the pKd [15, 28] was 3.95. The pKd [16, 28] was 3.62, the pKd [17, 28] was “below the threshold” and the pKd [18, 28] was 4.22. The pKd [19, 28] was 3.71, the pKd [20, 28] was 3.49 and the pKd [21, 28] was “below the threshold”. The pKd [22, 28] was “below the threshold”, the pKd [23, 28] was “below the threshold” and the pKd [24, 28] was “below the threshold”. The pKd [25, 28] was “below the threshold”, the pKd [26, 28] was “below the threshold” and the pKd [27, 28] was “below the threshold”.

With SRPTKGPTLL [PLEKHH2, Q8IVE3] the pKd [1, 28] was “below the threshold”, the pKd [2, 28] was 4.35 and the pKd [3, 28] was “below the threshold”. For the same binder, the pKd [4, 28] was “below the threshold”, the pKd [5, 28] was “below the threshold” and the pKd [6, 28] was “below the threshold”. For the same binder, the pKd [7, 28] was “below the threshold”, the pKd [8, 28] was “below the threshold” and the pKd [9, 28] was “below the threshold”. For the same binder, the pKd [10, 28] was “below the threshold”, the pKd [11, 28] was “below the threshold” and the pKd [12, 28] was “below the threshold”. For the same binder, the pKd [13, 28] was 4.41, the pKd [14, 28] was “below the threshold” and the pKd [15, 28] was “below the threshold”. For the same binder, the pKd [16, 28] was “below the threshold”, the pKd [17, 28] was 3.5 and the pKd [18, 28] was 3.7. For the same binder, the pKd [19, 28] was 3.72, the pKd [20, 28] was 4.41 and the pKd [21, 28] was “below the threshold”. The pKd [22, 28] was “below the threshold”, the pKd [23, 28] was “below the threshold” and the pKd [24, 28] was “below the threshold”. For the same binder, the pKd [25, 28] was “below the threshold”, the pKd [26, 28] was 4.16 and the pKd [27, 28] was “below the threshold”.

In the case of YDEPTTTTSVPL [SARS-Cov2-3a, P0DTC3], the pKd [1, 29] is reported as “below the threshold”, the pKd [2, 29] is reported as “below the threshold” and the pKd [3, 29] is reported as “below the threshold”. The pKd [4, 29] was 3.77, the pKd [5, 29] was “below the threshold” and the pKd [6, 29] was “below the threshold”. For the same binder, the pKd [7, 29] was “below the threshold”, the pKd [8, 29] was “below the threshold” and the pKd [9, 29] was “below the threshold”. The pKd [10, 29] was “below the threshold”, the pKd [11, 29] was “below the threshold” and the pKd [12, 29] was 4.56. For the same binder, the pKd [13, 29] was 4.12, the pKd [14, 29] was “below the threshold” and the pKd [15, 29] was “below the threshold”. The pKd [16, 29] was “below the threshold”, the pKd [17, 29] was “below the threshold” and the pKd [18, 29] was “below the threshold”. For the same binder, the pKd [19, 29] was “below the threshold”, the pKd [20, 29] was “below the threshold” and the pKd [21, 29] was “below the threshold”. For the same binder, the pKd [22, 29] was “below the threshold”, the pKd [23, 29] was “below the threshold” and the pKd [24, 29] was “below the threshold”. For the same binder, the pKd [25, 29] was “below the threshold”, the pKd [26, 29] was “below the threshold” and the pKd [27, 29] was “below the threshold”.
